For two substances, Kd results are on record in PMC9695261.

In the assay the target is Kansetin (human) (UniProt Q9BYF1). Nature of the assay: SPR. On the technique in general: SPR reads the build-up and loss of mass on a sensor chip optically.

As usually defined, the Kd is the concentration at which binding is half-saturated. High values mean lower affinity, low ones higher affinity. Regarding “His-tagged RBD of the SARS-CoV-2 Omicron BA.5 strain (domain or fragment)”, the Kd came out at 33.1 nM. In turn, “Spike S1+S2 trimer of the SARS-CoV-2 Omicron BA.5 strain (natural protein)” gave an equilibrium dissociation constant (Kd) of 1.22 nM.
